According to the DeepSol protein solubility set:

Test: soluble on expression in E. coli; label from the status in PepcDB or PDB records

| Sequence | soluble on expression in E. coli |
| --- | --- |
| MSLNLPSFTLDIKLAGDGPAGVEKQIQQMQAMVDDRVDLIIVQPTDNAALSSPLQAANQAGIPVVAYDQYISGGHLSAFVTSNNYQAGFLDGEYMAHHFADDHTIQIILVEYPYVSSTIDRVDGFFDALNQYKQPYRILRSYQAVEPVQGRAVGQQILQDFPQPGSVDALFTINDGGGLAIVDELEKAGRHELFVATIDGDPNSVARIRKGSIIKIDSAQFCGPIGAEAMRAAYAILTAGKVHEHWLVPVFPITRQSVAHYPGWSGPIPEHYSNPCLTFLCREGHHHHHH | not soluble |
| MTDCCPGFGSVAKYIAVSVREASFDVRSMAATSTCIFVLEVMGRHAGWIAAAGGLASDERHELALVILFPEQVFDPERFLRAVDEKVRSHGYCSVVVSEGIRGADGRFVAESGSRDVFGHARLGGVAPVIADLIKERLGYKYHWAVADYLQRAARHIALEHHHHHH | not soluble |
| MSLFFDKVIRLNIGGKRFDTHKSTLMKFDGYFKKFLQTPGSSLVDPIFVDRSPTYFDIVLNFMRKGRADLPETLKDLKMLLGEAEYYELTELCDDCKREISRLDIGIESEPFYEIIPEPSVVARNNNNTIPNNVVEVGS | soluble |
| MSLSSITNVAATAGVSIATVSRVLSGKRGKDDDIARRVREAAKQLGYSVNYAASALRSDVTKTIGLVIPSATEPFSAQLLDEIEPTIDTESQQLLLGIGATQEAQAERIESLVNRHVDGLIVVPAAGADLAGTLNQYANTLPIVQICGRQTAPRVSVVGIDENAAMEAIVKHLAEQGIASAAYMAGDELSFESAELFATFHTHMRTYGLVTSENWNQFGERTVQRGFDCAMRLFNGPLVQPEAVVCADDAIAFGVMVAFDALGIRVPEDVLVVGYHDSAIARTTMPRLTSVRAPFERIVSECLRLLASGPAGGAAETAAAPGGSVRAPRVMLAPQLIVRDSSVFREGHHHHHH | soluble |
| MGSDKIHHHHHHMLKLSVCLLTCNSARLLMEVLPPLLKVADECIVVDSGSTDETVAICQQFGLTVHHHAYKAHGAQMNYAIGLASHDWVLCMDSDEILDNDVVAAIQALKAGEEPEPTCAWRLPRYWFVLGKQVRTIYPISSPDYPVRLFNRQQARFNDRPVDDQVVGHASSVRLPGFVRHDTFYSLHEVFNKLNSYTTRLVKYQQIKPSLTRGIVSAIGAFFKWYLFSGAWRYGKVGVVTGLYATFYSFLKYFKAWYAHEDNQAPVAQKRTDP | not soluble |
| MLYPSKPNNEALRIQTLRELNVLDTSPEERFDRLTRLAKRLFNVPIALVSLVDADRQWFKSCVGLDVSETSRDISFCGHAILGDQILTVPDAGLDERFHDNPLVVGAPGIRFYAGCPLTVTNGSKLGTLCLIDIKPRDLDDEDRALLRDLARMAEQELAAVQMASMDELTLLSNRRGFEALARHALGVCKRLEKPATLLFFDLNDFKQINDTYGHAEGDGALKTFADVLRIAFRESDVIGRLGGDEFVALLTAADHVETSAIMARLREILDERNATLKRGYDIRFSVGQIEYDAERHPDIEALLADADKAMYLHKQASKRAR | not soluble |
| VNVVQLASAPLHRIVAYTNESCALALYRDQDATLVFAKQVESANQLRYQLDLYRPVSVLWGASGHAVLAHLPPERVRTLLKKEPLSPTGLAALPARELNRDLKQIREQGYSVSTRGEKIEGAAGISTPIFGTGGHVIGCFSLFIPRIRYPEHRETELAQLLVREAGALSDVLAGRQAAPA | not soluble |
| MGSDKIHHHHHHAQNRNTSICRLGFTYDISQSKNWGNNKPVIKSIIPYSSAEQAGIKKYDVIEEINGVPVTEVSVDEIPQLLNPAGRNDVLLTISNLSSPSKQVLVKKDCKKSNAITEDQLASAYAMYSLETTNEQEFVCPFKTTVTSDGVDFGNFKTFAFSTIDENNRKLETVINECIENELTKKGLTVDIAKPDLLIQTFYFFDKNPNYLGANKVLVEKEPTYRYNFSHSKMEKFPFLNYAAAEAEAEYLLQFGIRIIDQKDIPGRVLWECEANELLEDSYRLDEYARVHVPLMCMQYPYTKYGRNVPFKVSKKTYNYTGISYDIDKLDQVVDVDRNSPAYAAGIRPRDIIEKIGRHKMDHSAEEFSSAYKRFITNTMQYRDPKTMFTDANGFKYCMFWDVFKYPQIADASQSSDYLPAFSYLYYFAPYINPSGNNACTFNIKRGKTKLEVIIRPTIRSEVTVEIK | not soluble |
| MGSDKIHHHHHHMRVNSTDLQNAFGKYLSLLEKEDIIITKNGRSVAKLLRYNEPDYFLVHEESKNYKTTKRISYEEYMDLVDSSDQRYELIDGENYLLATPSFKHQVVVNEISGHFYNYFRGKSCRSLTSPFDVRLFGFATKFEEDPNVVQPDVVVICDLDKINEANKYEGIPSLIVEVLSPSTKGKDMVMKLNLYMKSGVLEYWVVDMESKSILQYSFSPERDIDSLKSLGEEDTIESSAFAGLKILLGEIFAEI | not soluble |
| MGSDKIHHHHHHMALPSLNGMRAFEAAARLGSIKDAAEELHLTPSAISRHIRALERNLGQDLFERGFRQITPTIRGSYYARSLSEAFEAIWRATDDVSLADGPSHGRTQRVRVLCVPAVLNLWLADRLPNFRRLHPAVELEISTSGKRANFDLAIVDEFVYKAGPALTLLIPLVLTPVCAPSLLDGPVPLRSPADLVNHHLIHECESMRWKRWLEQEGVLDTTPKSSTTLDDCTLIMREAINGAGIALADTMMAQDFLQQGKLVAPFPARHTYPAGIYLHQRRSIGNKPGTGLFQDWLLSEVEDHKRVMAIA | not soluble |
| MGTRNVRPGDRISAAIVAITDDSVFVATGSKVDGVIDRRELEEADGSLPYAVGDRVDLYVTAVNGQEIRLSKGLSGQGGAAVLEEARDSGVPVEGRVTGTCKGGYNVDVLRKRAFCPGSQIDLHQLEDAESVVGQTFQFLVTRVEQHGRNIVVSRRALLERERDAALATFLEGVKEGDVLEGTVTRLAPFGAFVEIAPGVDGMVLEHHHHHH | soluble |
| MKILLIGASGTLGSAVKERLEKKAEVITAGRHSGDVTVDITNIDSIKKMYEQVGKVDAIVSATGSATFSPLTELTPEKNAVTISSKLGGQINLVLLGIDSLNDKGSFTLTTGIMMEDPIVQGASAAMANGAVTAFAKSAAIEMPRGIRINTVSPNVLEESW | not soluble |
| MKQSKIIVAGIGPGSEQDITPAVLAAVREADVVVGYKYYFRFIRDFVRPDAECIDTGMKRERARAEQAFEYAEQGKTVCVISSGDAGIYGMTPLIYEMKRERQSNVEIIALPGI | not soluble |
| MGSDKIHHHHHHGREEKTVYDFPLEQSLKSDKEVSLNKELLAPYLMCSYDSTLCLIDWTANPMVHVYNMNTGKEMVAFGNKGMGPDDFLSISQMYVDMGKRSLLLYDQSLQTISSFQIDSLAQGSLSKIDCVSAPKLGMNRVYAYSDSIFYGSGTFESGLIAKCNQKEILNQYLPFPHTEQAVNRDVNYLLFQGDLIMKPDKKRFAYLAYECDLLSIQKVVNDTCLESVVHLNTYTPVFENQSTNEVSSVNVSTDSPKGFLRGVATENYVYALYSGQIGKNKAIANEVYVFDWEGRAVKKVILDRWGICISVDSNDERLCLMTKETDGGEERYHYYCYQLN | not soluble |
| MSLKMKPPVEKNEYYDVTFEDLTHEGAGVAKVQGFPIFVPNALPEEKAQIKVTRVKKGFAFGRLIELKEESPHRTDAPCPIYKQCGGCQLQHMTYEGQLLFKQKQVKDVLERIGKLDLSKVTVHPTLGMEDPWNYRNKAQVPVGEREGGLVAGFYQQRSHDIIDMSACLIQQSKNDEAVQAVKDICANYGVKAYNEERHKGWLRHIMVRYGVVTGEMMIVFITRTSDFPHKAKIIEDITAQFPHVKSIVQNINPNKTNVIFGNETNVIWGEEYIYDLIGDVKFAISARSFYQVNPEQTKVLYDKALEYAELQGEETVIDAYCGIGTISLFLAKQAKKVYGVEIVPEAIEDAKRNAELNGNTNAEFAVGEAETVIPKWYEEGITADTLVVDPPRKGCDEALLRTIVEMKPKRVVYVSCNPGTLARDLRVLEDGGYVTREVQPVDMFPHTNHVECCVLIKLKEEGHHHHHH | soluble |
| MGSDKIHHHHHHMNWDDVRIFLAVARAGQILGAARRLELNHATVSRRIAALEDALRTKLFRRLTTGSELTPAGERFLDIAERMEGEMIAARSTISGEGDDISGTVRIGAPDGFGVAFLARRLGELTALHRELTIQLVPVPRSFSLSRREADIAITVERPTEGRLVAGKLVDYSLGLFASRAYADANGLPKTAAELGRHPLIGYVPDLIVSPSLDYAAEFSADWRTSFAISSALGQAEAVRSGAGIGILHTFVARSMPELVAVDAVAPIRRAYWLVYHESVRPLRRIQIVAGFITKAVERERSLFL | not soluble |
